Assay results taken from US20160068605A1 (Janssen / Centocor, published 2016).

What was measured:
[1] = target: T1, Recombinant human CD123 SP1 ECD-His tag protein (human, UniProt P26951 20-305); test: SPR ProteOn, captured mAb
T1 construct: bought from R&D Systems (#301-R3/CF); biotinylated for some assays; also called rhCD123 SP1; huCD123 ECD SP1
T1 sequence: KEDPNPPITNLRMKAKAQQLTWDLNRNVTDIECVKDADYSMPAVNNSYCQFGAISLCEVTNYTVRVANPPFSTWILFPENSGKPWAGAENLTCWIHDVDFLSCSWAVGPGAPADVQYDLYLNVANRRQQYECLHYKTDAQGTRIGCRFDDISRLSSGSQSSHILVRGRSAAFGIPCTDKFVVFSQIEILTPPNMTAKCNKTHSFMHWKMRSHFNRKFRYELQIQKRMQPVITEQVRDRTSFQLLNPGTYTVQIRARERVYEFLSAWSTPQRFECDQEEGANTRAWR
Procedure: (§1) The biosensor surface was prepared by covalently coupling Goat anti-Human IgG (Fc) to the surface of a GLC chip (BioRad) using the manufacturer instructions for amine-coupling chemistry. […] The RU immobilized also included a goat anti-mouse Fc antibody that was added to capture other antibodies not included in the ones reported here. Since the mixture was 1:1 about 50% of these RU immobilized are expected to be goat anti-human Fc. The kinetic experiments were performed at 25° C. in running buffer (PBS pH 7.4, 0.005% P20, 3 mM EDTA). […] The reference spots (Goat anti-Human IgG (Fc)-modified surface) containing no candidate captured were used as a reference surface. Capture of mAb was followed by 3 min injection (association phase) of antigen at 40 μL/min, followed by 10 min of buffer flow (dissociation phase). […] Data was processed on the instrument software. Double reference subtraction of the data was performed by subtracting the curves generated by buffer injection from the reference-subtracted curves for analyte injections. Kinetic analysis of the data was performed using 1:1 Langmuir binding model with group fit. The result for each mAb was reported in the format of Kₐ (kon or on-rate), Kd (koff or off-rate), KD (Equilibrium dissociation constant) (Table 5).

[2] = target: T2, Recombinant human CD123 SP2 ECD protein (human, UniProt P26951 101-303); test: SPR ProteOn, captured mAb
T2 construct: also called rhCD123 SP2; CD123 ECD SP2
T2 sequence: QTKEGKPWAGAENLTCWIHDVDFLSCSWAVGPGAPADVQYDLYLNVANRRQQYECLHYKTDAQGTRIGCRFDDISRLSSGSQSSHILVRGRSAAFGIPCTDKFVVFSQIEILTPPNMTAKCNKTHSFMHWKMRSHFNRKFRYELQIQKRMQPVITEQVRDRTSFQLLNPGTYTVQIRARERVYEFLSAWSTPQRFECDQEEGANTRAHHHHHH
Procedure: as §1

[3] = target: T3, cyno CD123 ECD displayed on pDisplay-transfected cells (cynomolgus monkey); test: MSD cell binding on 293F pDisplay cells; fold change over background; parental 293F cells as control
T3 construct: ECD anchored on the surface of stably transfected HEK293 cells; also called cynoCD123 SP1 cells; cynoCD123 cells
T3 chain: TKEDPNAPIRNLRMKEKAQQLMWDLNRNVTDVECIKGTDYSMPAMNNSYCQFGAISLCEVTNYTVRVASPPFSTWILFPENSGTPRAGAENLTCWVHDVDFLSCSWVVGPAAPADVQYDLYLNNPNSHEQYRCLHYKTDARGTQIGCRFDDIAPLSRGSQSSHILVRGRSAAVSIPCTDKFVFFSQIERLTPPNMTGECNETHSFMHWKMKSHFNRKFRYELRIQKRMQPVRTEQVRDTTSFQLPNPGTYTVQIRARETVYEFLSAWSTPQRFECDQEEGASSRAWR
Procedure: (§2) The object of the screening assay was to identify antibodies that bound to cells expressing hCD123 SP1 and SP2 as well as cross reactivity with cells expressing cynoCD123 SP1.
(§3) Cells were immobilized and phages were assayed in triplicate. […] 5000 cells per well were plated into a 384 well plate (MA6000, cat. L21XB, MSD) and allowed to adhere for 2 hr. Cells were then blocked with 20% FBS in PBS (Gibco) for 15 mins. Antibody supernatants were then added and left at RT for 1 hr. Cells were washed 3 times with PBS and a ruthenium labeled secondary antibody (Jackson Immuno Research) was then added at 1 μg/mL and incubated for 1 hr at room temperature. A further washing step was then applied and 35 μL per well of MSD Read buffer T (surfactant free) was then added and incubated for 30 min for detection. Plates were then read using Sector Imager 2400 (MSD). Data was normalized to controls and graphed using GraphPad Prism Version 5. A positive binder was determined to be a hit with a signal 3× greater than background (FIGS. 2A, B and C).

[4] = target: T4, human CD123 SP2 ECD displayed on pDisplay-transfected cells (human, UniProt P26951 101-305); test: as above
T4 construct: ECD anchored on the surface of stably transfected HEK293 cells; also called hCD123 SP2 cells; pDisplay CD123SP2
T4 sequence: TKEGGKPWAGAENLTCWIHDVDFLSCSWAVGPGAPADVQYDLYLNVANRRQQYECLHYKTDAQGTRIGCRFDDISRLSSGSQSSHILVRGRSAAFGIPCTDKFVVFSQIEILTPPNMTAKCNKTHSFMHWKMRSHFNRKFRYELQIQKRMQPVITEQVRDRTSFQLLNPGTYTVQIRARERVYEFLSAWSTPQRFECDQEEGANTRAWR
Procedure: as §2, §3

[5] = target: T5, cell-surface CD3 epsilon on primary human T cells (human, UniProt P07766 23-207); test: flow cytometry competition with labeled CD3B146 on T cells
T5 construct: whole, on cells; part of the CD3/TCR complex on the cells
T5 sequence (P07766 23-207): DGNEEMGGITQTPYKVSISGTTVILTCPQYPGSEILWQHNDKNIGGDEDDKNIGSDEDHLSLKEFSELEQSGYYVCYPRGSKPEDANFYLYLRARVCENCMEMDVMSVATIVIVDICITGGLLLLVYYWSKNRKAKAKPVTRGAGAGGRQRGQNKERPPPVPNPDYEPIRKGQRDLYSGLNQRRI
Description: (§4) The format involved competition binding using a fixed concentration of labeled anti-CD3 mAb of known affinity and increasing concentrations of unlabeled test Abs (Ashkenazi A et al. PNAS: 88:10535, 1991.).

[6] = target: T6, cell-surface CD3 epsilon on primary cynomolgus T cells (cynomolgus monkey, UniProt Q95LI5 22-198); test: as above
T6 construct: whole, on cells; also called cynomolgus CD3e; Cyno T-cells
T6 sequence (Q95LI5 22-198): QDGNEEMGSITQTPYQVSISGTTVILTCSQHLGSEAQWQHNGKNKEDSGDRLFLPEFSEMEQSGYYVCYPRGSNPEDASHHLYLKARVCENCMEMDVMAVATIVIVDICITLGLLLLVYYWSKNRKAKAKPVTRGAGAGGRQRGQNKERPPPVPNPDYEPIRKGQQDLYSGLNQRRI
Description: as §4

B1: I3RB11 (antibody, IgG1, V domains shown)
VH: QVQLVQSGAEVKKPGSSVKVSCKASGGTFSSYGISWVRQAPGQGLEWMGGIIPIFGTANYAQKFQGRVTITADESTSTAYMELSSLRSEDTAVYYCARDLFSWRYSNFDYWGQGTLVTVSS
VL: not shown
notes: IgG1
In the case of B1, the Kd [1] is reported as 2.89 nM, the koff [1] is reported as 0.00253 s⁻¹ and the kon [1] is reported as 874000 M⁻¹ s⁻¹. B1: no binding (tested: 400 nM) [2]; no binding (tested: 10 µg/mL) [3]; no binding (tested: 10 µg/mL) [4].

B2: I3RB6 (antibody, IgG1, V domains shown)
VH: QVQLVQSGAEVKKPGSSVKVSCKASGGTFSSYAISWVRQAPGQGLEWMGGIIPIFGTANYAQKFQGRVTITADESTSTAYMELSSLRSEDTAVYYCARGLFNWSNVALDYWGQGTLVTVSS
VL: not shown
notes: IgG1; also called I3RB06
B2 was tested, and the Kd [1] was 11.5 nM, the koff [1] was 0.00593 s⁻¹ and the kon [1] was 514000 M⁻¹ s⁻¹. B2: no binding (tested: 400 nM) [2]; no binding (tested: 10 µg/mL) [3]; no binding (tested: 10 µg/mL) [4].

B3: I3RB38 (antibody, IgG1, V domains shown)
VH: QVQLVQSGAEVKKPGSSVKVSCKASGGTFSSYGISWVRQAPGQGLEWMGGIIPIFGTANYAQKFQGRVTITADESTSTAYMELSSLRSEDTAVYYCARDLMIWRFENFDYWGQGTLVTVSS
VL: not shown
notes: IgG1
Binder B3 has a Kd [1] of 0.49 nM, a koff [1] of 0.000434 s⁻¹ and a kon [1] of 888000 M⁻¹ s⁻¹. B3: no binding (tested: 400 nM) [2]; no binding (tested: 10 µg/mL) [4].

B4: I3RB7 (antibody, IgG1, V domains shown)
VH: QVQLVQSGAEVKKPGSSVKVSCKASGGTFSSYAISWVRQAPGQGLEWMGGIIPIFGTANYAQKFQGRVTITADESTSTAYMELSSLRSEDTAVYYCARGKRWLADAGDFDYWGQGTLVTVSS
VL: not shown
notes: IgG1; also called I3RB07
B4 gave a Kd [1] of 15.4 nM, a koff [1] of 0.0147 s⁻¹ and a kon [1] of 954000 M⁻¹ s⁻¹. B4: no binding (tested: 400 nM) [2]; no binding (tested: 10 µg/mL) [4].

B5: I3RB24 (antibody, IgG1, V domains shown)
VH: QVQLVQSGAEVKKPGSSVKVSCKASGGTFSSYAISWVRQAPGQGLEWMGGIIPIFGTANYAQKFQGRVTITADESTSTAYMELSSLRSEDTAVYYCARHTDAWGYRLDYWGQGTLVTVSS
VL: not shown
notes: IgG1
Binder B5 has a Kd [1] of 201 nM, a koff [1] of 0.226 s⁻¹ and a kon [1] of 1.13e+06 M⁻¹ s⁻¹. B5: no binding (tested: 400 nM) [2]; no binding (tested: 10 µg/mL) [3]; no binding (tested: 10 µg/mL) [4].

B6: I3RB12 (antibody, IgG1, V domains shown)
VH: QVQLVQSGAEVKKPGSSVKVSCKASGGTFSSYAISWVRQAPGQGLEWMGGIIPIFGTANYAQKFQGRVTITADESTSTAYMELSSLRSEDTAVYYCARADRVWDYYLDYWGQGTLVTVSS
VL: not shown
notes: IgG1
Work on B6 yielded a Kd [1] of 9.61 nM, a koff [1] of 0.0078 s⁻¹ and a kon [1] of 812000 M⁻¹ s⁻¹. B6: no binding (tested: 400 nM) [2]; no binding (tested: 10 µg/mL) [3]; no binding (tested: 10 µg/mL) [4].

B7: I3RB29 (antibody, IgG1, V domains shown)
VH: QVQLVQSGAEVKKPGSSVKVSCKASGGTFSSYAISWVRQAPGQGLEWMGGIIPIFGTANYAQKFQGRVTITADESTSTAYMELSSLRSEDTAVYYCARDSRIWSFSLDYWGQGTLVTVSS
VL: DIQMTQSPSSLSASVGDRVTITCRASQSIGEWLNWYQQKPGKAPKLLIYAASSLQSGVPSRFSGSGSGTDFTLTISSLQPEDFATYYCQQYYHFPLTFGQGTKVEIK
notes: IgG1
With B7 the Kd [1] was 5.9 nM, the koff [1] was 0.00132 s⁻¹ and the kon [1] was 224000 M⁻¹ s⁻¹. B7: no binding (tested: 400 nM) [2]; no binding (tested: 10 µg/mL) [4].

B8: CD123 null 4 (bispecific antibody, human IgG4 S228P, lambda, F234A L235A)
heavy: EVQLVESGGGLVQPGGSLKLSCAASGFTFNTYAMNWVRQASGKGLEWVGRIRSKYNAYATYYAASVKGRFTISRDDSKNTAYLQMNSLKTEDTAVYYCTRHGNFGNSYVSWFAYWGQGTLVTVSSASTKGPSVFPLAPCSRSTSESTAALGCLVKDYFPEPVTVSWNSGALTSGVHTFPAVLQSSGLYSLSSVVTVPSSSLGTKTYTCNVDHKPSNTKVDKRVESKYGPPCPPCPAPEAAGGPSVFLFPPKPKDTLMISRTPEVTCVVVDVSQEDPEVQFNWYVDGVEVHNAKTKPREEQFNSTYRVVSVLTVLHQDWLNGKEYKCKVSNKGLPSSIEKTISKAKGQPREPQVYTLPPSQEEMTKNQVSLTCLVKGFYPSDIAVEWESNGQPENNYKTTPPVLDSDGSFLLYSKLTVDKSRWQEGNVFSCSVMHEALHNHYTQKSLSLSLGK
light: QAVVTQEPSLTVSPGGTVTLTCRSSTGAVTTSNYANWVQQKPGQAPRGLIGGTNKRAPGTPARFSGSLLGGKAALTLSGAQPEDEAEYYCALWYSNLWVFGGGTKLTVLGQPKAAPSVTLFPPSSEELQANKATLVCLISDFYPGAVTVAWKADSSPVKAGVETTTPSKQSNNKYAASSYLSLTPEQWKSHRSYSCQVTHEGSTVEKTVAPTECS
VH: not shown
VL: not shown
notes: also called B21M IgG4 x CD3B220
Work on B8 yielded a Kd [5] of 48.6 nM and a Kd [6] of 36.8 nM.

B9: I3RB34 (antibody, IgG1, V domains shown)
VH: QVQLVQSGAEVKKPGSSVKVSCKASGGTFSSYAISWVRQAPGQGLEWMGGIIPIFGTANYAQKFQGRVTITADESTSTAYMELSSLRSEDTAVYYCARGWSYYRLDYWGQGTLVTVSS
VL: EIVLTQSPATLSLSPGERATLSCRASQSVDKWLAWYQQKPGQAPRLLIYYASNRATGIPARFSGSGSGTDFTLTISSLEPEDFAVYYCQQFDRAPFTFGQGTKVEIK
notes: IgG1; also called 13RB34
Work on B9 yielded a Kd [1] of 56.8 nM, a koff [1] of 0.0283 s⁻¹ and a kon [1] of 497000 M⁻¹ s⁻¹. B9: no binding (tested: 400 nM) [2]; binds [3]; no binding (tested: 10 µg/mL) [4].

B10: I3RB22 (antibody, IgG1, V domains shown)
VH: QVQLVQSGAEVKKPGSSVKVSCKASGGTFSSYAISWVRQAPGQGLEWMGGIIPIFGTANYAQKFQGRVTITADESTSTAYMELSSLRSEDTAVYYCARNLFYWADSVYLDYWGQGTLVTVSS
VL: EIVLTQSPATLSLSPGERATLSCRASQSVNKWLAWYQQKPGQAPRLLIYYASNRATGIPARFSGSGSGTDFTLTISSLEPEDFAVYYCQQGIDWPRTFGQGTKVEIK
notes: IgG1
For B10, the Kd [1] was 4.12 nM, the koff [1] was 0.00106 s⁻¹ and the kon [1] was 257000 M⁻¹ s⁻¹. B10: no binding (tested: 400 nM) [2]; no binding (tested: 10 µg/mL) [3]; no binding (tested: 10 µg/mL) [4].
